From publication PMC7881117 (Nature Communications, 2021)

Target: T1, full-length p53 (UniProt P04637 1-393)
T1 construct: A fluorescein-labelled form was used in the ubiquitination assay only
Test: SPR; p53 binding domain of MDM2 immobilised on a CM5 chip by amine coupling; full-length p53 at 0.125 to 2 μM flowed over; BIAcore 3000
Conditions: both partners purified

T1 sequence (P04637 whole entry): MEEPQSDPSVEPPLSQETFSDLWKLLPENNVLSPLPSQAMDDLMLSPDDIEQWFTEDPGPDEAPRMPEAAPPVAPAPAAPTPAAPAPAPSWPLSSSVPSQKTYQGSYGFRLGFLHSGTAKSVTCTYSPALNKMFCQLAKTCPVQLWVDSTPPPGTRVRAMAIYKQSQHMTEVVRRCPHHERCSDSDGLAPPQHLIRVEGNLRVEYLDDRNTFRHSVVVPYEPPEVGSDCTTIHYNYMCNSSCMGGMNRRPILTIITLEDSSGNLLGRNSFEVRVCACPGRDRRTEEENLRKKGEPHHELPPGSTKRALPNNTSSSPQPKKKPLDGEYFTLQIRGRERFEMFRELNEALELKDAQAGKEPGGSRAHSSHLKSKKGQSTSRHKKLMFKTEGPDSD

Kd: 600 ± 100 nM
B1: MDM2 p53 binding domain (domain or fragment)
chain: TLVRPKPLLLKLLKSVGAQKDTYTMKEVLFYLGQYIMTKRLYDEKQQHIVYCSNDLLGDLFGVPSFSVKEHRKIYTMIYRNLVV
